From PMC10397247
Like-named read-outs stand apart in the source and are kept apart here.

What was measured:
[1] = target: T1, 4H2944-AA; experiment: two-hybrid library CCmax; conditions: mean of both orientations;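 note: natural log of median RNA to DNA barcode read ratio; higher means stronger binding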
T1 chain: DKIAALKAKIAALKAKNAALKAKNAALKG

[2] = target: T2, 4H3921-AA; experiment: two-hybrid library CCmax; conditions: mean of both orientations;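 note: natural log of median RNA to DNA barcode read ratio; higher means stronger binding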
T2 chain: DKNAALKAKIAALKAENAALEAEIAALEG

[3] = target: T3, 4H2393-AA; experiment: two-hybrid library CCmax; conditions: mean of both orientations;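 note: natural log of median RNA to DNA barcode read ratio; higher means stronger binding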
T3 chain: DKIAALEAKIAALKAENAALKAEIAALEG

[4] = target: T4, 4H993-AA; experiment: two-hybrid library CCmax; conditions: mean of both orientations;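 note: natural log of median RNA to DNA barcode read ratio; higher means stronger binding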
T4 chain: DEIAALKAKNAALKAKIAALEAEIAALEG

[5] = target: T5, 4H717-AA; experiment: two-hybrid library CCmax; conditions: mean of both orientations;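 note: natural log of median RNA to DNA barcode read ratio; higher means stronger binding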
T5 chain: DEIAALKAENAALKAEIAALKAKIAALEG

[6] = target: T6, 4H2617-AA; experiment: two-hybrid library CCmax; conditions: mean of both orientations;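 note: natural log of median RNA to DNA barcode read ratio; higher means stronger binding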
T6 chain: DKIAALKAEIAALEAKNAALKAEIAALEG

[7] = target: T7, 4H794-AA; experiment: two-hybrid library CCmax; conditions: mean of both orientations
T7 chain: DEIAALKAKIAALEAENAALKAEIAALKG

[8] = target: T8, 4H2466-AA; experiment: two-hybrid library CCmax
T8 chain: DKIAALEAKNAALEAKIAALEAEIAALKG

[9] = target: T9, 4H317-AA; experiment: two-hybrid library CCmax; conditions: mean of both orientations
T9 chain: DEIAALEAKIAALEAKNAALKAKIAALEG

[10] = target: T10, 4H566-AA; experiment: two-hybrid library CCmax; conditions: mean of both orientations
T10 chain: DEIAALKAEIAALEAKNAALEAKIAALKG

[11] = target: T11, 4H881-AA; experiment: two-hybrid library CCmax; conditions: mean of both orientations
T11 chain: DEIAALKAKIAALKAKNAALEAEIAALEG

[12] = target: T12, 4H429-AA; experiment: two-hybrid library CCmax; conditions: mean of both orientations
T12 chain: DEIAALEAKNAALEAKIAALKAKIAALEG

[13] = target: T13, 4H342-AA; experiment: two-hybrid library CCmax; conditions: mean of both orientations
T13 chain: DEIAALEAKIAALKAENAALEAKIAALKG

[14] = target: T14, 4H2642-AA; experiment: two-hybrid library CCmax; conditions: mean of both orientations
T14 chain: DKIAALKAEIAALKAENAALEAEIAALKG

[15] = target: T15, 4H2754-AA; experiment: two-hybrid library CCmax; conditions: mean of both orientations
T15 chain: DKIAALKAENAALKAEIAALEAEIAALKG

[16] = target: T16, 4H3112-AA; experiment: two-hybrid library CCmax; conditions: mean of both orientations
T16 chain: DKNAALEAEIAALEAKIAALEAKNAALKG

[17] = target: T17, 4H3655-AA; experiment: two-hybrid library CCmax; conditions: mean of both orientations
T17 chain: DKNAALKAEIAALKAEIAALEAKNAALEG

[18] = target: T18, 4H2505-AA; experiment: two-hybrid library CCmax; conditions: mean of both orientations
T18 chain: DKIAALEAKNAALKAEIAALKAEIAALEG

[19] = target: T19, 4H3343-AA; experiment: two-hybrid library CCmax; conditions: mean of both orientations
T19 chain: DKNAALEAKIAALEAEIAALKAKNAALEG

[20] = target: T20, 4H2575-AA; experiment: two-hybrid library CCmax; conditions: mean of both orientations
T20 chain: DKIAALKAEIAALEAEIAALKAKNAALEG

[21] = target: T21, 4H780-AA; experiment: two-hybrid library CCmax; conditions: mean of both orientations
T21 chain: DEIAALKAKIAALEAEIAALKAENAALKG

[22] = target: T22, 4H3427-AA; experiment: two-hybrid library CCmax; conditions: mean of both orientations
T22 chain: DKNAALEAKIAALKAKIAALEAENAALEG

[23] = target: T23, 4H2354-AA; experiment: two-hybrid library CCmax
T23 chain: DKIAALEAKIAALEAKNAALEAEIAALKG

[24] = target: T24, 4H2949-AA; experiment: two-hybrid library CCmax; conditions: mean of both orientations
T24 chain: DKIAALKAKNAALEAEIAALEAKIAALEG

[25] = target: T25, 4H454-AA; experiment: two-hybrid library CCmax; conditions: mean of both orientations
T25 chain: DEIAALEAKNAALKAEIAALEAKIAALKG

[26] = target: T26, 4H2729-AA; experiment: two-hybrid library CCmax; conditions: mean of both orientations
T26 chain: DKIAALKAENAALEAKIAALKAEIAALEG

[27] = target: T27, 4H605-AA; experiment: two-hybrid library CCmax; conditions: mean of both orientations
T27 chain: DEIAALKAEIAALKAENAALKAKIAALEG

[28] = target: T28, 4H906-AA; experiment: two-hybrid library CCmax; conditions: mean of both orientations
T28 chain: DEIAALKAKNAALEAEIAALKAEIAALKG

[29] = target: T29, 4H678-AA; experiment: two-hybrid library CCmax; conditions: mean of both orientations
T29 chain: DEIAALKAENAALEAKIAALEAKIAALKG

[30] = target: T30, 4H3627-AA; experiment: two-hybrid library CCmax; conditions: mean of both orientations
T30 chain: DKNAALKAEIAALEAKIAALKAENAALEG

[31] = target: T31, 4H2883-AA; experiment: two-hybrid library CCmax; conditions: mean of both orientations
T31 chain: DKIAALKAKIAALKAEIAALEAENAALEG

[32] = target: T32, 4H335-AA; experiment: two-hybrid library CCmax; conditions: mean of both orientations
T32 chain: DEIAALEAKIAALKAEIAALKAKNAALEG

[33] = target: T33, 4H3606-AA; experiment: two-hybrid library CCmax; conditions: mean of both orientations
T33 chain: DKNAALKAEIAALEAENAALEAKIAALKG

[34] = target: T34, 4H2837-AA; experiment: two-hybrid library CCmax; conditions: mean of both orientations
T34 chain: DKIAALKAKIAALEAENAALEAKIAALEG

[35] = target: T35, 4H48-AA; experiment: two-hybrid library CCmax; conditions: mean of both orientations
T35 chain: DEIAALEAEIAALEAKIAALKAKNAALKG

[36] = target: T36, 4H3844-AA; experiment: two-hybrid library CCmax; conditions: mean of both orientations
T36 chain: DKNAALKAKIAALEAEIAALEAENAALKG

[37] = target: T37, O9-bN; experiment: two-hybrid library CCNG1
T37 chain: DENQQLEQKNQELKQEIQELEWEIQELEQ

[38] = target: T38, 4H982-AA; experiment: two-hybrid library CCmax; conditions: mean of both orientations
T38 chain: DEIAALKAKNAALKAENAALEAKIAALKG

[39] = target: T39, 4H2648-AA; experiment: two-hybrid library CCmax
T39 chain: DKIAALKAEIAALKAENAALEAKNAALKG

[40] = target: T40, 4H384-AA; experiment: two-hybrid library CCmax; conditions: mean of both orientations
T40 chain: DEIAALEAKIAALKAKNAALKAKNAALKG

[41] = target: T41, 4H3378-AA; experiment: two-hybrid library CCmax; conditions: mean of both orientations
T41 chain: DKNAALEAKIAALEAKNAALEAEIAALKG

[42] = target: T42, 4H3865-AA; experiment: two-hybrid library CCmax; conditions: mean of both orientations
T42 chain: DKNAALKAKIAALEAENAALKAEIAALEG

[43] = target: T43, 4H3697-AA; experiment: two-hybrid library CCmax; conditions: mean of both orientations
T43 chain: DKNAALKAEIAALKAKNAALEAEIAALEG

[44] = target: T44, 4H3056-AA; experiment: two-hybrid library CCmax; conditions: mean of both orientations
T44 chain: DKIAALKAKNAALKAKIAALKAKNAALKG

[45] = target: T45, 4H340-AA; experiment: two-hybrid library CCmax; conditions: mean of both orientations
T45 chain: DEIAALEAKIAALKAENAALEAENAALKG

[46] = target: T46, 4H3133-AA; experiment: two-hybrid library CCmax; conditions: mean of both orientations
T46 chain: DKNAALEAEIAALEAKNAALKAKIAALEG

[47] = target: T47, 4H3631-AA; experiment: two-hybrid library CCmax; conditions: mean of both orientations
T47 chain: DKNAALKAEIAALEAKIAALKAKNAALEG

[48] = target: T48, 4H32-AA; experiment: two-hybrid library CCmax; conditions: mean of both orientations
T48 chain: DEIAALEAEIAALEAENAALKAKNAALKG

[49] = target: T49, 4H2907-AA; experiment: two-hybrid library CCmax; conditions: mean of both orientations
T49 chain: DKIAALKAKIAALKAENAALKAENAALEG

[50] = target: T50, 4H3718-AA; experiment: two-hybrid library CCmax; conditions: mean of both orientations
T50 chain: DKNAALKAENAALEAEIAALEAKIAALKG

[51] = target: T51, 4H3413-AA; experiment: two-hybrid library CCmax; conditions: mean of both orientations
T51 chain: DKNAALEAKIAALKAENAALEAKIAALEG

[52] = target: T52, 4H3588-AA; experiment: two-hybrid library CCmax; conditions: mean of both orientations
T52 chain: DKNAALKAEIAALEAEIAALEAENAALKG

[53] = target: T53, 4H3162-AA; experiment: two-hybrid library CCmax; conditions: mean of both orientations
T53 chain: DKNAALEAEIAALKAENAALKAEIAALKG

[54] = target: T54, 4H697-AA; experiment: two-hybrid library CCmax; conditions: mean of both orientations
T54 chain: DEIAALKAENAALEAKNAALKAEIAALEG

[55] = target: T55, O8-bN; experiment: two-hybrid library CCNG1
T55 chain: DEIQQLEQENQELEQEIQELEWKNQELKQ

[56] = target: T56, 4H883-bH; experiment: two-hybrid library CCNG1
T56 chain: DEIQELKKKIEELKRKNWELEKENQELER

[57] = target: T57, 4H797-bH; experiment: two-hybrid library CCNG1
T57 chain: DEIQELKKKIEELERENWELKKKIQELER

[58] = target: T58, 4H607-bH; experiment: two-hybrid library CCNG1
T58 chain: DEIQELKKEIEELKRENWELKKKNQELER

[59] = target: T59, 4H462-bH; experiment: two-hybrid library CCNG1
T59 chain: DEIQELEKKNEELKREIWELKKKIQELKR

[60] = target: T60, 4H568-bH; experiment: two-hybrid library CCNG1
T60 chain: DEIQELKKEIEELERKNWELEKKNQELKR

[61] = target: T61, 4H967-bH; experiment: two-hybrid library CCNG1
T61 chain: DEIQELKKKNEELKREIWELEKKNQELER

[62] = target: T62, 4H918-bH; experiment: two-hybrid library CCNG1
T62 chain: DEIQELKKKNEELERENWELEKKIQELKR

[63] = target: T63, 4H72-bH; experiment: two-hybrid library CCNG1
T63 chain: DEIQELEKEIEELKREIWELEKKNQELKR

[64] = target: T64, 4H906-bN; experiment: two-hybrid library CCNG1
T64 chain: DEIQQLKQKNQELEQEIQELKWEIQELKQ

[65] = target: T65, 4H687-bH; experiment: two-hybrid library CCNG1
T65 chain: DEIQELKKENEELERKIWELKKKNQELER

[66] = target: T66, 4H953-bH; experiment: two-hybrid library CCNG1
T66 chain: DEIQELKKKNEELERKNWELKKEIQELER

DKIAALEAKIAALEAKNAALEAEIAALKG [4H2354-AA]
interaction score [1]: -1.22
interaction score [2]: -2.02
interaction score [3]: -0.967
interaction score [4]: -1.38
interaction score [5]: -1.79
interaction score [6]: 0.763
interaction score [7]: -1.09
interaction score [8]: -1.18
interaction score [9]: 0.391
interaction score [10]: 0.225
interaction score [11]: -0.238
interaction score [12]: -1.58
interaction score [13]: 1.11
interaction score [14]: -0.757
interaction score [15]: -1.42
interaction score [16]: -1.26
interaction score [17]: -1.28
interaction score [18]: 0.629
interaction score [19]: -1.47
interaction score [20]: -1
interaction score [21]: -1.35
interaction score [22]: -1.67
interaction score [23]: 2.28
interaction score [24]: -1.56
interaction score [25]: -0.846
interaction score [26]: -1.03
interaction score [27]: -1.45
interaction score [28]: -1.21
interaction score [29]: -1.46
interaction score [30]: -1.59
interaction score [31]: -1.31
interaction score [32]: -1.35
interaction score [33]: -0.995
interaction score [34]: -0.0493
interaction score [35]: -1.39
interaction score [36]: -1.42

DENQQLEQKNQELKQEIQELEWEIQELEQ [O9-bN]
interaction score ([37]; mean of both orientations): -1.9

DKIAALKAEIAALKAENAALEAKNAALKG [4H2648-AA]
interaction score [38]: -0.309
interaction score [39]: 0.455
interaction score [40]: 1.28
interaction score [41]: -1.8
interaction score [42]: -1.49
interaction score [43]: -1.06
interaction score [44]: -1.84
interaction score [45]: 1.21
interaction score [46]: -0.651
interaction score [47]: -0.735
interaction score [48]: 1.9
interaction score [49]: 1.45
interaction score [50]: -1.35
interaction score [51]: -1.8
interaction score [33]: -1.35
interaction score [52]: 0.769
interaction score [53]: -1.38
interaction score [54]: -1.14

DEIQQLEQENQELEQEIQELEWKNQELKQ [O8-bN]
interaction score [55]: 0.371
interaction score [37]: -0.872

DEIQELEKKNEELKREIWELKKKIQELKR [4H462-bH]
interaction score [56]: -0.231
interaction score [57]: -0.33
interaction score [58]: -0.483
interaction score [59]: 0.452
interaction score [60]: 0.229
interaction score [61]: -0.847
interaction score [62]: 0.264
interaction score [63]: 0.335
interaction score [64]: -2.48
interaction score [65]: 1.31
interaction score [66]: -0.0754
